Assay results published in article PMC4072508, “Genome-Wide Prediction and Validation of Peptides That Bind Human Prosurvival Bcl-2 Proteins” (PLoS Computational Biology, 2014).
Each block holds one binder with its values, some of them ahead of it.

Tests used:
Bcl-xL, Q07817 = assay: peptide SPOT array, c-Myc-tagged receptor at 1 uM or 100 nM, anti-c-Myc-Cy3
Mcl-1, Q07820 = biological target: T1, Mcl-1, Q07820; assay: as above
T1 chain: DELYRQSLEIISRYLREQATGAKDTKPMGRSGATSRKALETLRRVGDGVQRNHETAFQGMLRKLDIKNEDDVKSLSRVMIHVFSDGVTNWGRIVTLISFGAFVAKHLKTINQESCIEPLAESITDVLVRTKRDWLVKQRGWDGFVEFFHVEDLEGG

Sequence of Bcl-xL, Q07817 (Q07817 1-209): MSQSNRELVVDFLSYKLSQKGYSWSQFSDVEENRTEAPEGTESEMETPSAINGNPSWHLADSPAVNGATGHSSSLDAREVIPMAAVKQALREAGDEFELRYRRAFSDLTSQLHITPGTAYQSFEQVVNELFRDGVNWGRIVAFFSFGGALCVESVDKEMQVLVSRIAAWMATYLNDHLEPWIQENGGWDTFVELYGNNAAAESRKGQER

SPOT signal as a fraction of Bim BH3's signal on the same receptor and array (Bcl-xL, Q07817): 0.06
SPOT signal as a fraction of Bim BH3's signal on the same receptor and array (Mcl-1, Q07820): 0.01
Binder: QQMHHNAATAMAQRADMLRGLSPRES [NCOR2]

SPOT signal as a fraction of Bim BH3's signal on the same receptor and array (Bcl-xL, Q07817): 0.02
SPOT signal as a fraction of Bim BH3's signal on the same receptor and array (Mcl-1, Q07820): 0.01
Binder: SPYVFNGGTILAIALEDFAIVASDTR [PSMB1]

SPOT signal as a fraction of Bim BH3's signal on the same receptor and array (Bcl-xL, Q07817): 0.02
SPOT signal as a fraction of Bim BH3's signal on the same receptor and array (Mcl-1, Q07820): 0.02
Binder: SAGVPVRGVEDQAAAERFARCFGRTD

SPOT signal as a fraction of Bim BH3's signal on the same receptor and array (Bcl-xL, Q07817): 0.18
SPOT signal as a fraction of Bim BH3's signal on the same receptor and array (Mcl-1, Q07820): 0.08
Binder: RVSWNITGTVLASSLDDGCVRLWKAN [SEH1L]

SPOT signal as a fraction of Bim BH3's signal on the same receptor and array (Bcl-xL, Q07817): 0.02
SPOT signal as a fraction of Bim BH3's signal on the same receptor and array (Mcl-1, Q07820): 0.03
Binder: LNAVNYISTVLADWADNVFFLQLQQA [RINT1]

SPOT signal as a fraction of Bim BH3's signal on the same receptor and array (Bcl-xL, Q07817): 0.04
SPOT signal as a fraction of Bim BH3's signal on the same receptor and array (Mcl-1, Q07820): 0.04
Binder: NKRHRPIGIGVQGLADAFILMRYPFE [RRM1]

SPOT signal as a fraction of Bim BH3's signal on the same receptor and array (Bcl-xL, Q07817): 0.12
SPOT signal as a fraction of Bim BH3's signal on the same receptor and array (Mcl-1, Q07820): 0.04
Binder: SAGVPVRGVELQAAAERFARCFGRTD

SPOT signal as a fraction of Bim BH3's signal on the same receptor and array (Bcl-xL, Q07817): 0.02
SPOT signal as a fraction of Bim BH3's signal on the same receptor and array (Mcl-1, Q07820): 0.02
Binder: AALFLHAGCQLLTAGEDGKVQVWSGS [TEP1]

SPOT signal as a fraction of Bim BH3's signal on the same receptor and array (Bcl-xL, Q07817): 0.02
SPOT signal as a fraction of Bim BH3's signal on the same receptor and array (Mcl-1, Q07820): 0.02
Binder: HPRKESQVRQLAWVLDGVWVSIRLDS [SPAG9]

SPOT signal as a fraction of Bim BH3's signal on the same receptor and array (Bcl-xL, Q07817): 0.03
SPOT signal as a fraction of Bim BH3's signal on the same receptor and array (Mcl-1, Q07820): 0.02
Binder: NKTMTQLSSTDARCAKDILGFAVMFF [PKD2L1]

SPOT signal as a fraction of Bim BH3's signal on the same receptor and array (Bcl-xL, Q07817): 0.02
SPOT signal as a fraction of Bim BH3's signal on the same receptor and array (Mcl-1, Q07820): 0.01
Binder: LGLGELAGLTVANELDSLTYDIANNK [STRN]

SPOT signal as a fraction of Bim BH3's signal on the same receptor and array (Bcl-xL, Q07817): 0.02
SPOT signal as a fraction of Bim BH3's signal on the same receptor and array (Mcl-1, Q07820): 0.02
Binder: DSLAKFAGRKLKDCLEDLLVEISEVL [PCM1]

SPOT signal as a fraction of Bim BH3's signal on the same receptor and array (Mcl-1, Q07820): 0.01
Binder: DKATENCVCILHNLSYQLEAELPEKY [PKP2]

SPOT signal as a fraction of Bim BH3's signal on the same receptor and array (Mcl-1, Q07820): 0.17
Binder: RFVVIDNCIALKKVASRLKKKRKKKN [TTC3]

Continued, binder first:

Binder: LRCEMASTGEVACFGEGIHTAFLKAM
SPOT signal as a fraction of Bim BH3's signal on the same receptor and array (Bcl-xL, Q07817): 0.03
SPOT signal as a fraction of Bim BH3's signal on the same receptor and array (Mcl-1, Q07820): 0.03

Binder: ELQAPATVQSDGLLGDRLCVGAAGGF
SPOT signal as a fraction of Bim BH3's signal on the same receptor and array (Bcl-xL, Q07817): 0.01
SPOT signal as a fraction of Bim BH3's signal on the same receptor and array (Mcl-1, Q07820): 0.01

Binder: RRTSINVVRHDGIVGECNIQFALHPT
SPOT signal as a fraction of Bim BH3's signal on the same receptor and array (Bcl-xL, Q07817): 0.03
SPOT signal as a fraction of Bim BH3's signal on the same receptor and array (Mcl-1, Q07820): 0.03

Binder: CALLGSTGERICLALDSAGGNLCFTV
SPOT signal as a fraction of Bim BH3's signal on the same receptor and array (Bcl-xL, Q07817): 0.01
SPOT signal as a fraction of Bim BH3's signal on the same receptor and array (Mcl-1, Q07820): 0.01

Binder: ALKKADVGFADGIAGTDVAKEASDII [ATP2B1]
SPOT signal as a fraction of Bim BH3's signal on the same receptor and array (Bcl-xL, Q07817): 0.01
SPOT signal as a fraction of Bim BH3's signal on the same receptor and array (Mcl-1, Q07820): 0.01

Binder: CGDLASLSIDIWTLLEEVDGRRLVVA
SPOT signal as a fraction of Bim BH3's signal on the same receptor and array (Bcl-xL, Q07817): 0.03
SPOT signal as a fraction of Bim BH3's signal on the same receptor and array (Mcl-1, Q07820): 0.03

Binder: GLTWDPVGKYDASQADDRSLKVWRTL [HIRA]
SPOT signal as a fraction of Bim BH3's signal on the same receptor and array (Bcl-xL, Q07817): 0.17
SPOT signal as a fraction of Bim BH3's signal on the same receptor and array (Mcl-1, Q07820): 0.23

Binder: PSLSKELTSSDAGVGDVSFDSDSQFP [CRTC1]
SPOT signal as a fraction of Bim BH3's signal on the same receptor and array (Bcl-xL, Q07817): 0.01
SPOT signal as a fraction of Bim BH3's signal on the same receptor and array (Mcl-1, Q07820): 0.01

Binder: RRTSINVVRHLGIVLECNIQFALHPT
SPOT signal as a fraction of Bim BH3's signal on the same receptor and array (Bcl-xL, Q07817): 0.14
SPOT signal as a fraction of Bim BH3's signal on the same receptor and array (Mcl-1, Q07820): 0.1

Binder: RLAHEHHCLRDKILGDCYYCVSGLPE [ADCY8]
SPOT signal as a fraction of Bim BH3's signal on the same receptor and array (Bcl-xL, Q07817): 0.02
SPOT signal as a fraction of Bim BH3's signal on the same receptor and array (Mcl-1, Q07820): 0.01

Binder: RIEMWISILELNELGEYAAVELHQAK [KIF13A]
SPOT signal as a fraction of Bim BH3's signal on the same receptor and array (Bcl-xL, Q07817): 0.02
SPOT signal as a fraction of Bim BH3's signal on the same receptor and array (Mcl-1, Q07820): 0.02

Binder: RRTSINVVRHLGIVGECNIQFALHPT
SPOT signal as a fraction of Bim BH3's signal on the same receptor and array (Bcl-xL, Q07817): 0.03
SPOT signal as a fraction of Bim BH3's signal on the same receptor and array (Mcl-1, Q07820): 0.02

Binder: HPRRESQVRQDAWIGDGVWVSIRLDS [MAPK8IP3]
SPOT signal as a fraction of Bim BH3's signal on the same receptor and array (Bcl-xL, Q07817): 0.02
SPOT signal as a fraction of Bim BH3's signal on the same receptor and array (Mcl-1, Q07820): 0.02

Binder: IVGGCVVGIAMARFLDFIRGMLKLIL [DIRC2]
SPOT signal as a fraction of Bim BH3's signal on the same receptor and array (Bcl-xL, Q07817): 0.29
SPOT signal as a fraction of Bim BH3's signal on the same receptor and array (Mcl-1, Q07820): 0.18

Binder: HGTSSRIGSSDKSVGEVMAIGRTFEE
SPOT signal as a fraction of Bim BH3's signal on the same receptor and array (Bcl-xL, Q07817): 0.02
SPOT signal as a fraction of Bim BH3's signal on the same receptor and array (Mcl-1, Q07820): 0.02

Binder: CALLGSTGERICLAGDSAGGNLCFTV
SPOT signal as a fraction of Bim BH3's signal on the same receptor and array (Bcl-xL, Q07817): 0.01
SPOT signal as a fraction of Bim BH3's signal on the same receptor and array (Mcl-1, Q07820): 0.01

Binder: PPDAHVLGKALEAAGQDFSLDLRSTG [CIITA]
SPOT signal as a fraction of Bim BH3's signal on the same receptor and array (Bcl-xL, Q07817): 0.02
SPOT signal as a fraction of Bim BH3's signal on the same receptor and array (Mcl-1, Q07820): 0.01

Binder: CGDLASLSIDIWTLGEEVDGRRLVVA
SPOT signal as a fraction of Bim BH3's signal on the same receptor and array (Bcl-xL, Q07817): 0.02
SPOT signal as a fraction of Bim BH3's signal on the same receptor and array (Mcl-1, Q07820): 0.02

Binder: DHTDGVVACADGLIGDLCTAFGKDVL [KPNB1]
SPOT signal as a fraction of Bim BH3's signal on the same receptor and array (Bcl-xL, Q07817): 0.02
SPOT signal as a fraction of Bim BH3's signal on the same receptor and array (Mcl-1, Q07820): 0.01

Binder: ELQAPATVQSLGLLLDRLCVGAAGGF
SPOT signal as a fraction of Bim BH3's signal on the same receptor and array (Bcl-xL, Q07817): 0.01
SPOT signal as a fraction of Bim BH3's signal on the same receptor and array (Mcl-1, Q07820): 0.01

Binder: GVMTQEVGQLLQDMGDDVYQQYRSLT [HUWE1]
SPOT signal as a fraction of Bim BH3's signal on the same receptor and array (Mcl-1, Q07820): 0.45

Binder: KCCYGYCIDLLERLAEDTPFDFELYL [GRIN3B]
SPOT signal as a fraction of Bim BH3's signal on the same receptor and array (Mcl-1, Q07820): 0.02

Binder: CVSDQELGLLIKEVADALGGGADPET [KCNK4]
SPOT signal as a fraction of Bim BH3's signal on the same receptor and array (Mcl-1, Q07820): 0.01

Binder: HQAEVQIARKLQCIADQFHRLHVQQH [BMF]
SPOT signal as a fraction of Bim BH3's signal on the same receptor and array (Mcl-1, Q07820): 0.48

Binder: CANHPSAVNVLTEHSEELGEFMETKG [ARHGEF7]
SPOT signal as a fraction of Bim BH3's signal on the same receptor and array (Mcl-1, Q07820): 0.01

Binder: SSAPAAAAGLLREAGSGGRERADWRR [MAP3K1]
SPOT signal as a fraction of Bim BH3's signal on the same receptor and array (Mcl-1, Q07820): 0.07

Binder: SLIEYKAAVTLQRAALKFLAKYRKKK [IQCB1]
SPOT signal as a fraction of Bim BH3's signal on the same receptor and array (Mcl-1, Q07820): 0.24

Binder: REAAVSASDILQESAIHSPGTVEKEA [C12orf43]
SPOT signal as a fraction of Bim BH3's signal on the same receptor and array (Mcl-1, Q07820): 0.01

Binder: SEDHFRAAYLLKDVAKEAYQDVAFTQ [BNC1]
SPOT signal as a fraction of Bim BH3's signal on the same receptor and array (Mcl-1, Q07820): 0.02

Binder: TLLTPGYSVIIEKLAEGLDIQLKSPV [KDM1B]
SPOT signal as a fraction of Bim BH3's signal on the same receptor and array (Mcl-1, Q07820): 0.02
